Literature values, collected in patent US20070166367A1, “Adept or gdept producing acetaldehyde” (priority 2004, published 2007).
Where two headings read alike, the source gives them in different places. Values belong to the molecule of their own block, whether it stands above or below them.

B1: Human class IV: human class IV alcohol dehydrogenase (protein, UniProt P40394 1-386, looked up)
All-trans-retinol …: MFAEIQIQDKDRMGTAGKVIKCKAAVLWEQKQPFSIEEIEVAPPKTKEVRIKILATGICRTDDHVIKGTMVSKFPVIVGHEATGIVESIGEGVTTVKPGDKVIPLFLPQCRECNACRNPDGNLCIRSDITGRGVLADGTTRFTCKGKPVHHFMNTSTFTEYTVVDESSVAKIDDAAPPEKVCLIGCGFSTGYGAAVKTGKVKPGSTCVVFGLGGVGLSVIMGCKSAGASRIIGIDLNKDKFEKAMAVGATECISPKDSTKPISEVLSEMTGNNVGYTFEVIGHLETMIDALASCHMNYGTSVVVGVPPSAKMLTYDPMLLFTGRTWKGCVFGGLKSRDDVPKLVTEFLAKKFDLDQLITHVLPFKKISEGFELLNSGQSIRTVLTF
Km (for ethanol): 37000 µM

enzymatic rate relative to the usual human ADH enzymes ('physiological' ethanol concentrations): at least 16 fold
B2: Human B2: human alcohol dehydrogenase β2, atypical liver class I enzyme, B2B2 homodimer (protein, UniProt P00325 2-375, looked up)
All-trans-retinol …: STAGKVIKCKAAVLWEVKKPFSIEDVEVAPPKAYEVRIKMVAVGICHTDDHVVSGNLVTPLPVILGHEAAGIVESVGEGVTTVKPGDKVIPLFTPQCGKCRVCKNPESNYCLKNDLGNPRGTLQDGTRRFTCRGKPIHHFLGTSTFSQYTVVDENAVAKIDAASPLEKVCLIGCGFSTGYGSAVNVAKVTPGSTCAVFGLGGVGLSAVMGCKAAGAARIIAVDINKDKFAKAKELGATECINPQDYKKPIQEVLKEMTDGGVDFSFEVIGRLDTMMASLLCCHEACGTSVIVGVPPASQNLSINPMLLLTGRTWKGAVYGGFKSKEGIPKLVADFMAKKFSLDALITHVLPFEKINEGFDLLHSGKSIRTVLTF
modifications: beta2 allele homodimer
Km (for ethanol): 940 µM
Vmax relative to the usual human alpha, beta and gamma variants (pH 7.5): (Note at pH 7.5 the Vmax of beta 2 is 5-40 times higher that the usual human alpha, beta and gamma variants)

B3: Human B1: usual human alcohol dehydrogenase B1 isoenzyme (protein, UniProt P00325 2-375, looked up)
All-trans-retinol …: B2 All-trans-retinol …
Km: 49 µM
